Protein stability index data for 36 sequences are collected here from the supplement of paper PMC10567573.

± gives the standard deviation.

This data set can be described thus: protein stability index of a GFP-peptide fusion (GPS, HEK-293T) (PSI 1-6); higher = more stable. The note with it: c terminus: a fixed tail appended.
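Further: 24-mer peptide tiles fused after GFP, lentivirally expressed, FACS-sorted into six equal bins by GFP/DsRed ratio, decoded by Illumina sequencing, PSI is the read-weighted mean bin number.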

NALTLFNLAQDPQCKEWQVLMCGF [TMEM120A] showed a protein stability index (treatment: DMSO) of 2.26 ± 0.38 and a protein stability index (treatment: MLN4924 1 uM, 8 h) of 2.06 ± 0.16.
As to NARRKLKGAILTTMLATRNFSAAK [CAMK2B], the protein stability index stood at 3.08 ± 0.33 (treatment: DMSO) and 3.15 ± 0.36 (treatment: MLN4924 1 uM, 8 h).
With NARRRLKKENKMTWAPKNKGGEER [IRX6], the protein stability index runs as follows: (treatment: DMSO) 4.51 ± 0.27; (treatment: MLN4924 1 uM, 8 h) 4.63 ± 0.098.
NDFVQVDPGQVGLINSNVSMVDLT [FAN1] returned a protein stability index (treatment: DMSO) of 3.9 ± 0.39 and a protein stability index (treatment: MLN4924 1 uM, 8 h) of 4.24 ± 0.15.
Consider NDLQDLREQILRVKDTDDVPMILV [RAP1B], for which the protein stability index is, setting by setting: (treatment: DMSO) 2.82 ± 0.3; (treatment: MLN4924 1 uM, 8 h) 3.06 ± 0.21.
With NESRYMIYEFWENSSVWNSHLQTN [NECAB1], the protein stability index by setting is: (treatment: DMSO) 2.26 ± 0.26; (treatment: MLN4924 1 uM, 8 h) 2.24 ± 0.23.
On to NEYAYLPLHVHEEEGILVAVGQDC [DCAF4], for which the protein stability index amounted to 3.75 ± 0.18 (treatment: DMSO) and 3.91 ± 0.12 (treatment: MLN4924 1 uM, 8 h).
Sequence NEYRKLHPVLHKEEKQHLERLNKE [TRIM43] came in with a protein stability index (treatment: DMSO) of 4.9 ± 0.21 and a protein stability index (treatment: MLN4924 1 uM, 8 h) of 4.87 ± 0.081.
On the same counts, the results for NFRVGKKIGCGNFGELRLGKNLYT [CSNK1G1] are 2.24 ± 0.4 and 2.11 ± 0.15.
With NHHSPGGSSDASGSYSSTMNGHQN [ESRRG], the protein stability index was 4.86 ± 0.23 (treatment: DMSO) and 5.05 ± 0.17 (treatment: MLN4924 1 uM, 8 h).
For NHTTVTNSTPLRAACFDGRLDIVK [FEM1B] the same measures were 3.46 ± 0.23 and 3.4 ± 0.25.
NKATNTDHLTTVLYLQLAICSSLQ [C8orf76]: the protein stability index runs as follows: (treatment: DMSO) 3.4 ± 0.44; (treatment: MLN4924 1 uM, 8 h) 3.21 ± 0.64.
On the same counts, the results for NKNSTDVKGCSMYVALFPCNECAK [DCTD] are 2.19 ± 0.37 and 2.13 ± 0.14.
As for NKRAALQALKRKKRFEKQLTQIDG [CHMP4C], the protein stability index runs as follows: (treatment: DMSO) 3.95 ± 0.42; (treatment: MLN4924 1 uM, 8 h) 3.9 ± 0.34.
For NLIEKSASLDNGGCALTTFSVLEG [SOAT1], the protein stability index by setting is: (treatment: DMSO) 3.28 ± 0.37; (treatment: MLN4924 1 uM, 8 h) 3.32 ± 0.32.
Consider NLLALGTDRKLDDGDDKVFRRAPS [PPFIA4], for which the protein stability index by setting is: (treatment: DMSO) 4.51 ± 0.25; (treatment: MLN4924 1 uM, 8 h) 4.5 ± 0.24.
Turning to NLLQDSSTSDSDLTCDSSTSSSDD [C18orf25], the protein stability index reads like this: (treatment: DMSO) 5.53 ± 0.3; (treatment: MLN4924 1 uM, 8 h) 5.61 ± 0.16.
For NLRKQLETLSGDRVRLDSELRNVQ [KRT71] the same measures were 3.69 ± 0.08 and 3.74 ± 0.15.
Regarding NLTSNEGHSLKNLEHRLNEMERTQ [RASAL3], the protein stability index is 4.28 ± 0.32 (treatment: DMSO) and 4.26 ± 0.25 (treatment: MLN4924 1 uM, 8 h).
As to NNLTDRIVVIPGKVEEVSLPEQVD [CARM1], the protein stability index reads like this: (treatment: DMSO) 5.1 ± 0.13; (treatment: MLN4924 1 uM, 8 h) 5.27 ± 0.23.
In turn, NPPRAEFNYSVGFKDLNESLNALE [APBB1IP] returned a protein stability index (treatment: DMSO) of 3.48 ± 0.26 and a protein stability index (treatment: MLN4924 1 uM, 8 h) of 3.65 ± 0.21.
Turning to NRNLQKFSLFGDISVLQQQGSLSN [FBXO33], the protein stability index stood at 2.83 ± 0.28 (treatment: DMSO) and 2.86 ± 0.32 (treatment: MLN4924 1 uM, 8 h).
NTAKSTSRVTAFLDDLSQKLKPLG [NLN]: the protein stability index (treatment: DMSO) was found to be 3.42 ± 0.15 and the protein stability index (treatment: MLN4924 1 uM, 8 h) amounted to 3.35 ± 0.044.
As for NTEVPARNLYAYIQKLTQIETGEN [PTPRD], the protein stability index by setting is: (treatment: DMSO) 3.39 ± 0.22; (treatment: MLN4924 1 uM, 8 h) 3.37 ± 0.37.
For NVQTEFPGEDENPEKASELSQVEL [TRIM55] the same measures were 5.48 ± 0.35 and 5.57 ± 0.3.
As to NVSGLRFETQMKTLAQFPETLLGD [KCNA4], the protein stability index (treatment: DMSO) is 3.53 ± 0.48 and the protein stability index (treatment: MLN4924 1 uM, 8 h) came to 3.86 ± 0.1.
On the same counts, the results for NWFNVTGSDKCVFLKNTEVSSMEC [CD69] are 2.82 ± 0.25 and 2.94 ± 0.26.
Regarding NYCSAYESFYESTSPECASPQFEG [NEUROD6], the protein stability index by setting is: (treatment: DMSO) 3.54 ± 0.22; (treatment: MLN4924 1 uM, 8 h) 3.67 ± 0.16.
For PAFVKFAYVAEREDELSLVKGSRV [NCK2] the same measures were 3.09 ± 0.34 and 3.08 ± 0.39.
For PAIADLFAESLQCKVDCEANLTPN [P3H4] the same measures were 3.93 ± 0.38 and 4.05 ± 0.55.
Turning to PAQSGILSDREVVNLFLHFTVNPK [BTBD1], the protein stability index is, setting by setting: (treatment: DMSO) 1.84 ± 0.24; (treatment: MLN4924 1 uM, 8 h) 2.53 ± 0.23.
Regarding PASRRRVVEEVRRRATSGGKWPQV [LPCAT4], the protein stability index stood at 3.99 ± 0.17 (treatment: DMSO) and 3.82 ± 0.23 (treatment: MLN4924 1 uM, 8 h).
For PDEANVGKHPKDKTEDENKQSFLD [TOR1AIP2] the same measures were 5.42 ± 0.21 and 5.75 ± 0.2.
For PDVLRTKPAFIGKTNLDGMITVQL [PTPRD], the protein stability index stood at 2.52 ± 0.53 (treatment: DMSO) and 2.13 ± 0.57 (treatment: MLN4924 1 uM, 8 h).
In the case of PDVTQQLLQKYNMQFLIRSHECKP [PPEF2], the protein stability index is, setting by setting: (treatment: DMSO) 2.8 ± 0.21; (treatment: MLN4924 1 uM, 8 h) 2.71 ± 0.25.
For PEAKVLHTKRLYRAVVEAVHRLDL [SMG5], the protein stability index is 2.19 ± 0.3 (treatment: DMSO) and 2.17 ± 0.11 (treatment: MLN4924 1 uM, 8 h).
